Substitutions are numbered along the chain they refer to. Blank lines part the entries; values can stand above or below the binder they belong to.
Assays:
[1] = molecular target: T1, native human MET on living human cells (human, UniProt P08581 25-1390); assay: cell-based or functional assay
[2] = molecular target: T2, native mouse MET on living mouse cells (mouse, UniProt P16056 25-1379); assay: cell-based or functional assay
[3] = molecular target: T1, native human MET on living human cells; assay: cell-based or functional assay; remark: listed apart in the source
[4] = molecular target: T2, native mouse MET on living mouse cells; assay: cell-based or functional assay; remark: listed apart in the source
[5] = molecular target: T1, native human MET on living human cells; assay: flow cytometry, A549 cells
Description: (§1) We also analysed whether chimeric anti-MET antibodies bound to native human and mouse MET in living cells. […] Antibody binding to cells was analysed by flow cytometry using phycoerythrin-conjugated anti-human IgG1 antibodies (eBioscience) and a CyAn ADP analyser (Beckman Coulter). As a positive control for human MET binding, we used a commercial mouse anti-human MET antibody (R&D Systems) and phycoerythrin-conjugated anti-mouse IgG1 antibodies (eBioscience). As a positive control for mouse MET binding we used a commercial goat anti-mouse MET antibody (R&D Systems) and phycoerythrin-conjugated anti-goat IgG1 antibodies (eBioscience). […] Consistent with the data obtained in ELISA, maximal binding (EMAX) varied depending on antibody, but was similar in human and mouse cells.

[6] = molecular target: T2, native mouse MET on living mouse cells; assay: flow cytometry, MLP29 cells
Description: as §1

[7] = molecular target: human MET ECD mutant A (mutations 1, 2, 3) (human) (UniProt P08581); assay: ELISA, MET ECD mutant in solid phase, mAb 0-50 nM
[8] = molecular target: human MET ECD mutant D (mutations 1, 2) (human) (UniProt P08581); assay: ELISA, MET ECD mutant in solid phase, mAb 0-50 nM
[9] = molecular target: human MET ECD mutant E (mutations 2, 3, 4) (human) (UniProt P08581); assay: ELISA, MET ECD mutant in solid phase, mAb 0-50 nM
[10] = molecular target: human MET ECD mutant H (mutations 2, 4) (human) (UniProt P08581); assay: ELISA, MET ECD mutant in solid phase, mAb 0-50 nM
[11] = molecular target: T3, human MET extracellular domain (ECD) (human, UniProt P08581 25-932); assay: ELISA, MET ECD in solid phase, mAb 0-50 nM
T3 construct: range 1-932; recombinant ECD; also called hMET; human MET ECD
Description: Using human MET as a template, we mutagenized each of these residues in different permutations, generating a series of MET mutants that are fully human except for specific residues, which are llama. Next, we tested the affinity of selected SEMA-binding mAbs (71D6, 71C3, 71D4, 71A3, 71G2) and PSI-binding mAbs (76H10 and 71G3) for these MET mutants by ELISA. To this end, the various MET proteins were immobilized in solid phase (100 ng/well in a 96-well plate) and then exposed to increasing concentrations of antibodies (0-50 nM) solution. […] Wild-type human MET was used as positive control.
TABLE 18 The epitopes of MET responsible for agonistic antibody binding represent residues conserved among H. sapiens, M. musculus, R. norvegicus, M. fascicularis but not among the same species and L. glama. The relevance of residues conserved among human, mouse, rat, cynomolgus monkey but not llama MET for binding to agonistic mAbs was tested by ELISA. Wild-type (WT) or mutant (MT) human MET ECD was immobilized in solid phase and exposed to increasing concentrations of mAbs in solution. […] All binding values were normalized to the WT protein and are expressed as % binding (EMAX) compared to WT MET.

[12] = molecular target: T4, human MET-Fc chimeric protein (R&D Systems) (human, UniProt P08581 25-932); assay: competition ELISA, hMET-Fc in solid phase, competitor 0.3 nM biotinylated hHGF
T4 construct: extracellular domain; bought (R&D Systems); also called hMET; not shown: Fc portion of human IgG1
Description: (§2) To investigate along this line, we tested the competition between mAbs and HGF by ELISA. Recombinant human and mouse HGF (R&D Systems) were biotinylated at the N-terminus using NHS-LC-biotin (Thermo Scientific). MET-Fc protein, either human or mouse (R&D Systems), was immobilized in solid phase and then exposed to 0.3 nM biotinylated HGF, either human or mouse, in the presence of increasing concentrations of antibodies (0-120 nM).
(§3) A MET-Fc chimeric protein (either human or mouse) was immobilized in solid phase and exposed to a fixed concentration of biotinylated HGF (either human or mouse), in the presence of increasing concentrations of antibodies. […] Antibody-HGF competition is expressed as IC₅₀ (the concentration that achieves 50% competition) and IMAX (the maximum % competition reached at saturation).

[13] = molecular target: T5, mouse MET-Fc chimeric protein (R&D Systems) (mouse, UniProt P16056 25-929, limits assumed); assay: competition ELISA, mMET-Fc in solid phase, competitor 0.3 nM biotinylated mHGF
T5 construct: bought (R&D Systems); also called mMET; not shown: Fc
Description: as §2, §3

cell scattering score, HPAF-II, 0.001 nM [1]: 0 score 0-4
cell scattering score, HPAF-II, 0.004 nM [1]: 0 score 0-4
cell scattering score, HPAF-II, 0.012 nM [1]: 0 score 0-4
cell scattering score, HPAF-II, 0.037 nM [1]: 0 score 0-4
cell scattering score, HPAF-II, 0.111 nM [1]: 1 score 0-4
cell scattering score, HPAF-II, 0.333 nM [1]: 2 score 0-4
cell scattering score, HPAF-II, 1.000 nM [1]: 3 score 0-4
cell scattering score, HPAF-II, 3.000 nM [1]: 4 score 0-4
cell scattering score, HPAF-II, 9.000 nM [1]: 4 score 0-4
cell scattering score, MLP29, 0.001 nM [2]: 0 score 0-4
cell scattering score, MLP29, 0.004 nM [2]: 0 score 0-4
cell scattering score, MLP29, 0.012 nM [2]: 0 score 0-4
cell scattering score, MLP29, 0.037 nM [2]: 0 score 0-4
cell scattering score, MLP29, 0.111 nM [2]: 1 score 0-4
cell scattering score, MLP29, 0.333 nM [2]: 2 score 0-4
cell scattering score, MLP29, 1.000 nM [2]: 3 score 0-4
cell scattering score, MLP29, 3.000 nM [2]: 4 score 0-4
cell scattering score, MLP29, 9.000 nM [2]: 4 score 0-4
EMAX (% relative to control) [5]: 106%
EMAX (% relative to control) [6]: 115%
% binding (EMAX) compared to WT MET [7]: 99.8%
% binding (EMAX) compared to WT MET [8]: 102%
% binding (EMAX) compared to WT MET [9]: 59.6%
% binding (EMAX) compared to WT MET [10]: 61.6%
% binding (EMAX) compared to WT MET [11]: 100%
IMAX (maximum % competition) [12]: 93.6%
IMAX (maximum % competition) [13]: 89.2%
B1: chimeric llama-human IgG1 mAb 71C3 (antibody, V domains shown)
VH: QLQLVESGGGLVQPGGSLRLSCAASGFTFSSHAMSWVRQAPGKGLEWVSAINSGGGSTSYADSVKGRFTISRDNAKNTLYLQMNSLKPEDTAVYYCAKELRFDLARYTDYEAWDYWGQGTQVTVSS
VL: SYELTQPSALSVTLGQTAKITCQGGSLGSSYAHWYQQKPGQAPVLVIYDDDSRPSGIPERFSGSSSGGTATLTISGAQAEDEGDYYCQSADSSGNAAVFGGGTHLTVL
protection from staurosporine, viability EC50, MCF10A [3]: 31.9 nM
protection from staurosporine, viability EMAX, MCF10A [3]: 50.2%
protection from staurosporine, viability EC50, MLP29 [4]: 31 nM
protection from staurosporine, viability EMAX, MLP29 [4]: 51.3%

cell scattering score, HPAF-II, 0.001 nM [1]: 0 score 0-4
cell scattering score, HPAF-II, 0.004 nM [1]: 0 score 0-4
cell scattering score, HPAF-II, 0.012 nM [1]: 0 score 0-4
cell scattering score, HPAF-II, 0.037 nM [1]: 0 score 0-4
cell scattering score, HPAF-II, 0.111 nM [1]: 0 score 0-4
cell scattering score, HPAF-II, 0.333 nM [1]: 0 score 0-4
cell scattering score, HPAF-II, 1.000 nM [1]: 1 score 0-4
cell scattering score, HPAF-II, 3.000 nM [1]: 2 score 0-4
cell scattering score, HPAF-II, 9.000 nM [1]: 2 score 0-4
cell scattering score, MLP29, 0.001 nM [2]: 0 score 0-4
cell scattering score, MLP29, 0.004 nM [2]: 0 score 0-4
cell scattering score, MLP29, 0.012 nM [2]: 0 score 0-4
cell scattering score, MLP29, 0.037 nM [2]: 0 score 0-4
cell scattering score, MLP29, 0.111 nM [2]: 0 score 0-4
cell scattering score, MLP29, 0.333 nM [2]: 0 score 0-4
cell scattering score, MLP29, 1.000 nM [2]: 1 score 0-4
cell scattering score, MLP29, 3.000 nM [2]: 2 score 0-4
cell scattering score, MLP29, 9.000 nM [2]: 2 score 0-4
EMAX (% relative to control) [5]: 107%
EMAX (% relative to control) [6]: 94.8%
% binding (EMAX) compared to WT MET [7]: 114%
% binding (EMAX) compared to WT MET [8]: 120%
% binding (EMAX) compared to WT MET [9]: 57.2%
% binding (EMAX) compared to WT MET [10]: 58.7%
% binding (EMAX) compared to WT MET [11]: 100%
IMAX (maximum % competition) [12]: 95.6%
IMAX (maximum % competition) [13]: 91.3%
B2: chimeric llama-human IgG1 mAb 71D4 (antibody, V domains shown)
VH: B1 VH with Q1E, S31G, H32Y, A33G, A50D, E99D, L100M, F102L, D103Y, T108N
VL: B1 VL with Y2S, E3A
protection from staurosporine, viability EC50, MCF10A [3]: 30.2 nM
protection from staurosporine, viability EMAX, MCF10A [3]: 51.7%
protection from staurosporine, viability EC50, MLP29 [4]: 29.8 nM
protection from staurosporine, viability EMAX, MLP29 [4]: 52.1%

Source: US20210024639A1 (AGOMAB THERAPEUTICS, published 2021)
